Assay [1] concerns the target T1, 重组单链HLA-G单体/人HLA-Gβ2M MHC I类复合物 (SEQ ID NO:39) (human).
T1 construct: also called wt-HLA-G复合物; wt-HLA-G抗原
Briefly: SPR Biacore T200, 25 °C, multi-cycle kinetics; antibody captured by anti-hFc on CM3 chip, HLA-G complex as analyte; 1:1 Langmuir.

The target of assay [2] is T1, 重组单链HLA-G单体/人HLA-Gβ2M MHC I类复合物 (SEQ ID …). Briefly: SPR multi-cycle kinetics.

B1: HLA-G-0090 (antibody, IgG1, V domains shown)
VH: QVQLQQSGPGLLKPSQTLSLTCAISGDSVSSNRAAWNWIRQSPSRGLEWLGRTYYRSKWYNDYAVSVQGRITLIPDTSKNQFSLRLNSVTPEDTAVYYCASVRAVAPFDYWGQGVLVTVSS
VL: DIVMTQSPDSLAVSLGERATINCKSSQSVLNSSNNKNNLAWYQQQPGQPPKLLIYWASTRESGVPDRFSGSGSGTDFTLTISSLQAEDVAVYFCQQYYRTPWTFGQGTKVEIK
modifications: N-glycosylation at the NSS motif of CDR-L1 (LC positions 31-33; Fab glycosylation found by mass spectrometry); N-glycosylation in CDR-L1 (NSS motif, LC 31-33) is on the light chain, not on this chain
notes: also called 亲代抗体HLA-G-0090
With B1, the t1/2 in assay [1] is 6.5 min.

B2: HLA-G-0090-VL-S32P (antibody, V domains shown)
VH: QVQLQQSGPGLLKPSQTLSLTCAISGDSVSSNRAAWNWIRQSPSRGLEWLGRTYYRSKWYNDYAVSVQGRITLIPDTSKNQFSLRLNSVTPEDTAVYYCASVRAVAPFDYWGQGVLVTVSS
VL: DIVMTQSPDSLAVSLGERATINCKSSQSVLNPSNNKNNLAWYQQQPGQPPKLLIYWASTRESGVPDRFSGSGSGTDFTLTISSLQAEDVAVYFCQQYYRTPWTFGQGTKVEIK
notes: also called HLA-G-0090-S32P
In the case of B2, in assay [1], the t1/2 came to 7.34 min.

B3: HLA-G-0090-VL-S33D (antibody, IgG1, V domains shown)
VH: QVQLQQSGPGLLKPSQTLSLTCAISGDSVSSNRAAWNWIRQSPSRGLEWLGRTYYRSKWYNDYAVSVQGRITLIPDTSKNQFSLRLNSVTPEDTAVYYCASVRAVAPFDYWGQGVLVTVSS
VL: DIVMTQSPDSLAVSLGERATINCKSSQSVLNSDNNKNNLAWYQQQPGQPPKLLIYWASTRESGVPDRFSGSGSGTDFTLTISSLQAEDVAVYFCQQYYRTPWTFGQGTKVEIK
notes: IgG1 format, HEK293F; also called HLA-G-0090--S33D
Take B3: in assay [2], the “fold decrease of binding affinity against HLA-G-0090” value was 5 fold. Also, in assay [1], the t1/2 came out at 1.73 min.

B4: HLA-G-0090-VL-S33P (antibody, IgG1, V domains shown)
VH: QVQLQQSGPGLLKPSQTLSLTCAISGDSVSSNRAAWNWIRQSPSRGLEWLGRTYYRSKWYNDYAVSVQGRITLIPDTSKNQFSLRLNSVTPEDTAVYYCASVRAVAPFDYWGQGVLVTVSS
VL: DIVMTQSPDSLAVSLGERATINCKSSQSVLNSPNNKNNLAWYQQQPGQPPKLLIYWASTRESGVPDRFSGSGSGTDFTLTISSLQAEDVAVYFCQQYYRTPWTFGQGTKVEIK
notes: IgG1 format, HEK293F; also called HLA-G-0090-S33P
For B4, the “fold decrease of binding affinity against HLA-G-0090” value in assay [2] was 2 fold. The molecule also returned a t1/2 in assay [1] of 3.13 min.

B5: HLA-G-0090-VL-S33A (antibody, V domains shown)
VH: QVQLQQSGPGLLKPSQTLSLTCAISGDSVSSNRAAWNWIRQSPSRGLEWLGRTYYRSKWYNDYAVSVQGRITLIPDTSKNQFSLRLNSVTPEDTAVYYCASVRAVAPFDYWGQGVLVTVSS
VL: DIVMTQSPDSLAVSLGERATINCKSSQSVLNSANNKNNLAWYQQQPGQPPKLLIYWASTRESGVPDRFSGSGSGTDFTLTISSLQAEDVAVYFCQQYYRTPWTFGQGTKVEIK
notes: also called HLA-G-0090-S33A
For the molecule B5, in assay [1], the t1/2 was 7.76 min.
